Consider two molecules from publication PMC5862501, “Lung macrophage scavenger receptor SR-A6 (MARCO) is an adenovirus type-specific virus entry receptor” (PLoS Pathogens, 2018).

Data set [1] addresses mouse SR-A6 expressed in L-929 cells (mouse) (UniProt Q60754). Nature of the data set: binding of fluorophore-labelled virions to cells, confocal microscopy; Alexa-Fluor488-labelled HAdV-C5 bound at 4°C to L-929 cells transfected with mouse SR-A6-IRES-Tomato; Tomato-positive against Tomato-negative cells.
Data set [2] deals with the molecule itself. As to the kind of experiment: non-reducing SDS-PAGE; purified soluble mSR-A6; monomers and trimers.

As to “human adenovirus type C5 (HAdV-C5) virion (complex)”, in data set [1], the fold, mean cell-associated virus number in Tomato-positive over Tomato-negative cells turned out to be 7 fold.

B1: soluble mouse SR-A6 (entire extracellular part) (domain or fragment)
chain: QVLNLQEQLQMLEMCCGNGSLAIEDKPFFSLQWAPKTHLVPRAQGLQALQAQLSWVHTSQEQLRQQFNNLTQNPELFQIKGERGSPGPKGAPGAPGIPGLPGPAAEKGEKGAAGRDGTPGVQGPQGPPGSKGEAGLQGLTGAPGKQGATGAPGPRGEKGSKGDIGLTGPKGEHGTKGDKGDLGLPGNKGDMGMKGDTGPMGSPGAQGGKGDAGKPGLPGLAGSPGVKGDQGKPGVQGVPGPQGAPGLSGAKGEPGRTGLPGPAGPPGIAGNPGIAGVKGSKGDTGIQGQKGTKGESGVPGLVGRKGDTGSPGLAGPKGEPGRVGQKGDPGMKGSSGQQGQKGEKGQKGESFQRVRIMGGTNRGRAEVYYNNEWGTICDDDWDNNDATVFCRMLGYSRGRALSSYGGGSGNIWLDNVNCRGTENSLWDCSKNSWGNHNCVHNEDAGVECS
notes: SR-A6 (MARCO), mouse, the entire extracellular part; Largely monomeric with a small amount of trimers (15-20%) in non-reducing SDS-PAGE; also called mSR-A6 soluble; soluble SR-A6
For orientation: stoichiometry N means a count of units in the complex or per binding partner. As for B1, the “stoichiometry N” value in data set [2] was 3.
